Data from EP4527849A1 (Universitätsmedizin der Johannes Gutenberg-Universität Mainz, dated 2025).

B1: chimerized TCR construct 11C/25 (TCR, V domains shown)
V domain 1: EAQVTQNPRYLITVTGKKLTVTCSQNMNHEYMSWYRQDPGLGLRQIYYSMNVEVTDKGDVPEGYKVSRKEKRNFPLILESPSPNQTSLYFCASSLSPAPPSIWSYNEQFFGPGTRLTVLE
V domain 2: AQSVTQLDSQVPVFEEAPVELRCNYSSSVSVYLFWYVQYPNQGLQLLLKYLSGSTLVKGINGFEAEFNKSQTSFHLRKPSVHISDTAEYFCAVSKLAGRRALTFGSGTRLQVQP
notes: In the assays the TCR stood as an alpha/beta heterodimer on transduced human T cells whose endogenous TCR was knocked out; also called cTCR 11C/25; TCR 11C/25
B2: chimerized TCR construct 11C/34 (TCR, V domains shown)
V domain 1: EPEVTQTPSHQVTQMGQEVILRCVPISNHLYFYWYRQILGQKVEFLVSFYNNEISEKSEIFDDQFSVERPDGSNFTLKIRSTKLEDSAMYFCASSLRLGWIPGNEQFFGPGTRLTVLE
V domain 2: AQSVTQPDIHITVSEGASLELRCNYSYGATPYLFWYVQSPGQGLQLLLKYFSGDTLVQGIKGFEAEFKRSQSSFNLRKPSVHWSDAAEYFCAVGFMDSSYKLIFGSGTRLLVRP
notes: In the assays the TCR stood as an alpha/beta heterodimer on transduced human T cells whose endogenous TCR was knocked out; also called cTCR 11C/34; TCR 11C/34

How the values were obtained:
[1] = target: T1, full-length murine PD-L1 (murine, UniProt Q9EP73 19-290); assay: IFNg-ELISPOT; TCR-transduced T cells on 293T B2M/CIITA knockout cells transfected with full-length murine PD-L1
T1 construct: whole, on cells; also called mPD-L1; murine homologue of PD-L1
T1 sequence (Q9EP73 19-290): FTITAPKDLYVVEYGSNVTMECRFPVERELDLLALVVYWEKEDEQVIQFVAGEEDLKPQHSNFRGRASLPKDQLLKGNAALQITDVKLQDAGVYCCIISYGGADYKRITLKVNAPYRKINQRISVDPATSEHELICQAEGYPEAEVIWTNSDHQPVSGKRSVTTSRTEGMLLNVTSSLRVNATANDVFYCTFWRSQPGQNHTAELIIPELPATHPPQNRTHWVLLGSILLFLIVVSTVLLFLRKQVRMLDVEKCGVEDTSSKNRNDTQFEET

[2] = target: T2, human PD-L1 (Programmed death-ligand 1) (human, UniProt Q9NZQ7 19-290); assay: IFNg-ELISPOT on 293T B2M/CIITA knockout cells transfected with full-length or single-domain PD-L1 constructs; binding inferred from recognition
T2 construct: No signal peptide limits are stated; also called CD274; B7-H1
T2 sequence (Q9NZQ7 19-290 limits assumed): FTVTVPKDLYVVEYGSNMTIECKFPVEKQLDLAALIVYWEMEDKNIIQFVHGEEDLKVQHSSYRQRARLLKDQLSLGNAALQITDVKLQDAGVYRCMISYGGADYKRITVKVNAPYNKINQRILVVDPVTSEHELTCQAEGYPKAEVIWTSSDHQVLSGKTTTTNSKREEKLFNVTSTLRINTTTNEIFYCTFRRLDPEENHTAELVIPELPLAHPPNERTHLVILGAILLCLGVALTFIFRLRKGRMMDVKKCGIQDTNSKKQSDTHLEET

[3] = target: T2, human PD-L1 (Programmed death-ligand 1); assay: IFNg-ELISPOT with TCR-transduced T cells and blocking anti-PD-L1 antibodies; binding inferred from recognition

| Binder | binding result [1] | binding result [2] | binding result [3] |
| --- | --- | --- | --- |
| B1 | no binding | binds |  |
| B2 | no binding |  | binds |
